Kd data for one molecule are collected here from paper PMC3954559.

The target of assay [1] is partially deglycosylated Fc (mouse IgG3 Fc domain treated with a mixture of endoglycosidases) (mouse). As to the kind of experiment: SPR. (In SPR one partner is held on a chip, and binding of the other changes the refractive index at the surface.)
Assay [2] addresses commercial immunoglobulin containing Fc. As to the kind of experiment: SPR.

B1: mouse Fc receptor (FcR gamma I) (receptor)
chain: EVVNATKAVITLQPPWVSIFQKENVTLWCEGPHLPGDSSTQWFINGTAVQISTPSYSIPEASFQDSGEYRCQIGSSMPSDPVQLQIHNDWLLLQASRRVLTEGEPLALRCHGWKNKLVYNVVFYRNGKSFQFSSDSEVAILKTNLSHSGIYHCSGTGRHRYTSAGVSITVKELFTTPVLRASVSSPFPEGSLVTLNCETNLLLQRPGLQLHFSFYVGSKILEYRNTSSEYHIARAEREDAGFYWCEVATEDSSVLKRSPELELQVLGPQSSAPVWFHILFYLSVGIMFSLNTVLYVKIHRLQREKKYNLEVPLVSEQGKKANSFQQVRSDGVYEEVTATASQTTPKEAPDGPRSSVGDCGPEQPEPLPPSDSTGAQTSQS
Broadly, the Kd is the free concentration of one partner at which half of the binding sites on the other are occupied at equilibrium, for simple one-to-one binding. As for B1, the Kd in assay [1] worked out at 1330 nM; in assay [2] it was 384 nM.
